Experimental findings from publication PMC2924388 are described below.

The target in experiment [1] is HIV-1 M-type (NL4.3) capsid N-terminal domain (HIV-1 M-type (NL4.3)) (UniProt P12493). The experiment in a line: ITC; MicroCal ITC200; cyclophilin (typical concentration 1.4 mM) in the syringe, capsid (typical concentration 120 µM) in the cell; 50 mM KPO4 pH 7.4, 100 mM NaCl, 1 mM DTT; 15°C; one-state model.
Experiment [2] deals with HIV-2 capsid N-terminal domain with an alanine inserted at position 88 (HIV-2 (ROD)). Described as above.
The target in experiment [3] is HIV-1 M-type (NL4.3) capsid N-terminal domain (HIV-1 M-type (NL4.3)) (UniProt P12493).
In experiment [4] the target is HIV-2 (ROD) capsid N-terminal domain (HIV-2 (ROD)).
Experiment [5] shares this target. Put plainly: ITC; MicroCal ITC200; cyclophilin (typical concentration 1.4 mM) in the syringe, capsid (typical concentration 120 µM) in the cell; 50 mM KPO4 pH 7.4, 100 mM NaCl, 1 mM DTT; 15°C; one-state model.

Turning to “CypA domain of Macaca fascicularis TRIMCyp2 (Mafa TRIMCyp2) (domain or fragment)”, the results for the Kd in experiment [1] and in experiment [2] were 12 µM and 207 µM, respectively.

Substance “CypA domain of Mafa TRIMCyp2 with Cyp K143E (K446E in TRIMCyp) (domain or fragment)” displayed a restriction of the infectivity of the HIV-1 vector in CRFK cells expressing whole Mafa TRIMCyp2 Cyp K143E; partially rescued by 5 µM cyclosporine (orders of magnitude) in experiment [3] of 2. This substance also came in with a restriction of the infectivity of the HIV-2 vector in CRFK cells expressing whole Mafa TRIMCyp2 Cyp K143E; completely rescued by 5 µM cyclosporine (orders of magnitude) in experiment [4] of 2. Further, the results for the equilibrium dissociation constant (Kd) in experiment [1], in experiment [5] and in experiment [2] were 12 µM, 13 µM and 9 µM, respectively.
